In US20200271651:

T1: FluHSA2 fluorogenic peptide
T1 chain: TKCATESAVNRRPCFSALK

T2: fluorescent labeled elastin protein (5-Fam-QXL520 labeled-elastin), P15502
T2 chain: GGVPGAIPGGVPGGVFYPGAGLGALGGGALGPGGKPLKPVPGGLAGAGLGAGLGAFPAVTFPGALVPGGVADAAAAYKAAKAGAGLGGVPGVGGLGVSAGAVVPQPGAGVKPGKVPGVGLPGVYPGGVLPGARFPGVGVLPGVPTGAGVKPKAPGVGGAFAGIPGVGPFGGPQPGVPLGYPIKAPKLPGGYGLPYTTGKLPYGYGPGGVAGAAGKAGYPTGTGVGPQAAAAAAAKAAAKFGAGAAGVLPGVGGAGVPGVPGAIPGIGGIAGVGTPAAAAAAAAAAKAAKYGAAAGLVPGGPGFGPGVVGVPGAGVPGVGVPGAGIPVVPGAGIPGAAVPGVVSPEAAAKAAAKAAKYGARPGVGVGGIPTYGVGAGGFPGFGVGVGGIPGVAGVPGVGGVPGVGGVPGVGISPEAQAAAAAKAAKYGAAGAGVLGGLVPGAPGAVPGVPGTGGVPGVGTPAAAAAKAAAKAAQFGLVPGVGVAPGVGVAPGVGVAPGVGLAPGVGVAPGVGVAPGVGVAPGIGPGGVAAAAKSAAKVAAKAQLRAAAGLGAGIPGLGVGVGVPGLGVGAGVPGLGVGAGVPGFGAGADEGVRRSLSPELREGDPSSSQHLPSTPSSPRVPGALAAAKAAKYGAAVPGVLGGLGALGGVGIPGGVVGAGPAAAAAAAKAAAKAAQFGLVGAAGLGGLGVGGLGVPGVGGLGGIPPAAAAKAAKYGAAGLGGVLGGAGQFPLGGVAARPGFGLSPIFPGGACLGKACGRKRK

B1: native Asp f2 (glycosylated form) of Aspergillus fumigatus (protein)
chain: ATPHEPVFFSWDAGAVTSFPIHSSCNATQRRQIEAGLNEAVELARHAKAHILRWGNESEIYRKYFGNRPTMEAVGAYDVIVNGDKANVLFRCDNPDGNCALEGWGGHWRGANATSETVICDRSYTTRRWLVSMCSQGYTVAGSETNTFWASDLMHRLYHVPAVGQGWVDHFADGYDEVIALAKSNGTESTHDSEALQYFALEAYAFDIAAPGVGCAGESHGPDQGHDTGSASAPASTSTSSSSSGSGSGATTTPTDSPSATIDVPSNCHTHEGGQLHCT
B2: active recombinant Asp f2 (residues 32-310) (protein)
chain: B1 chain

Legend:
[1] = target: T1, FluHSA2 fluorogenic peptide
[2] = target: T2, fluorescent labeled elastin protein …

Row | Protein | cleavage of FluHSA2 (10 uM, 16 hours at 22 C; fluorescence), native Asp f2 on anti-Asp f2-immobilized beads [1] | cleavage of FluHSA2 (fluorescence, Ex 485 nm/Em 535 nm), Asp f2 captured on 5D7A1-bound beads [1] | degradation of 5-Fam-QXL520 labeled elastin (fluorescence), native Asp f2 on 5D7A1-bound beads [2] | degradation of FITC conjugated collagen (15 ug/mL; fluorescence), native Asp f2 on 5D7A1-bound beads (FITC conjugated collagen)
1 | B1 | FluHSA2 was found to exhibit high specificity for cleavage by Asp f2 compared with Asp f3 | both native and recombinant Asp f2 cleave the FluHSA2 substrate | native Asp f2 is also capable of degrading the human proteins collagen and elastin | native Asp f2 is also capable of degrading the human proteins collagen and elastin
2 | B2 |  | both native and recombinant Asp f2 cleave the FluHSA2 substrate |  | 
